Data published in patent US20240417476A1 (ATYR PHARMA, published 2024).
Like-named read-outs stand apart in the source and are kept apart here.

B1: Human NRP2b v4 (906aa) with C-terminal split NanoLuc tag, expressed in Expi293F cells (receptor)
chain: QPDPPCGGRLNSKDAGYITSPGYPQDYPSHQNCEWIVYAPEPNQKIVLNFNPHFEIEKHDCKYDFIEIRDGDSESADLLGKHCGNIAPPTIISSGSMLYIKFTSDYARQGAGFSLRYEIFKTGSEDCSKNFTSPNGTIESPGFPEKYPHNLDCTFTILAKPKMEIILQFLIFDLEHDPLQVGEGDCKYDWLDIWDGIPHVGPLIGKYCGTKTPSELRSSTGILSLTFHTDMAVAKDGFSARYYLVHQEPLENFQCNVPLGMESGRIANEQISASSTYSDGRWTPQQSRLHGDDNGWTPNLDSNKEYLQVDLRFLTMLTAIATQGAISRETQNGYYVKSYKLEVSTNGEDWMVYRHGKNHKVFQANNDATEVVLNKLHAPLLTRFVRIRPQTWHSGIALRLELFGCRVTDAPCSNMLGMLSGLIADSQISASSTQEYLWSPSAARLVSSRSGWFPRIPQAQPGEEWLQVDLGTPKTVKGVIIQGARGGDSITAVEARAFVRKFKVSYSLNGKDWEYIQDPRTQQPKLFEGNMHYDTPDIRRFDPIPAQYVRVYPERWSPAGIGMRLEVLGCDWTDSKPTVETLGPTVKSEETTTPYPTEEEATECGENCSFEDDKDLQLPSGFNCNFDFLEEPCGWMYDHAKWLRTTWASSSSPNDRTFPDDRNFLRLQSDSQREGQYARLISPPVHLPRSPVCMEFQYQATGGRGVALQVVREASQESKLLWVIREDQGGEWKHGRIILPSYDMEYQIVFEGVIGKGRSGEIAIDDIRISTDVPLENCMEPISAFAGENFKGGTLLPGTEPTVDTVPMQPIPAYWYYVMAAGGAVLVLVSVALALVLHYHRFRYAAKKTDHSITYKTSHYTNGAPLAVEPTLTIKLEQDRGSHC
notes: not shown: vector-encoded spacer and split NanoLuc fragment
B2: CCR7, full coding sequence, in pBiT1.1-C with C-terminal split NanoLuc tag, expressed in Expi293F cells (receptor)
chain: QDEVTDDYIGDNTTVDYTLFESLCSKKDVRNFKAWFLPIMYSIICFVGLLGNGLVVLTYIYFKRLKTMTDTYLLNLAVADILFLLTLPFWAYSAAKSWVFGVHFCKLIFAIYKMSFFSGMLLLLCISIDRYVAIVQAVSAHRHRARVLLISKLSCVGIWILATVLSIPELLYSDLQRSSSEQAMRCSLITEHVEAFITIQVAQMVIGFLVPLLAMSFCYLVIIRTLLQARNFERNKAIKVIIAVVVVFIVFQLPYNGVVLAQTVANFNITSSTCELSKQLNIAYDVTYSLACVRCCVNPFLYAFIGVKFRNDLFKLFKDLGCLSQEQLRQWSSCRHIRRSSMSVEAETTTTFSP
notes: cDNA Genscript OHu24012; not shown: vector-encoded spacer and large split NanoLuc fragment (pBiT1.1-C)
B3: CCR7 truncated after aa331 (without its C-terminal cytoplasmic sequence) in pBiT1.1-C with split NanoLuc tag, expressed in Expi293 cells (receptor)
chain: QDEVTDDYIGDNTTVDYTLFESLCSKKDVRNFKAWFLPIMYSIICFVGLLGNGLVVLTYIYFKRLKTMTDTYLLNLAVADILFLLTLPFWAYSAAKSWVFGVHFCKLIFAIYKMSFFSGMLLLLCISIDRYVAIVQAVSAHRHRARVLLISKLSCVGIWILATVLSIPELLYSDLQRSSSEQAMRCSLITEHVEAFITIQVAQMVIGFLVPLLAMSFCYLVIIRTLLQARNFERNKAIKVIIAVVVVFIVFQLPYNGVVLAQTVANFNITSSTCELSKQLNIAYDVTYSLACVRCCVNPFLYAFIGV
notes: Membrane protein on cells, cytoplasmic tail removed; not shown: vector-encoded spacer and large split NanoLuc fragment (pBiT1.1-C)
B4: Human NRP2b v5 with C-terminal split NanoLuc tag, expressed in Expi293F cells (receptor)
chain: QPDPPCGGRLNSKDAGYITSPGYPQDYPSHQNCEWIVYAPEPNQKIVLNFNPHFEIEKHDCKYDFIEIRDGDSESADLLGKHCGNIAPPTIISSGSMLYIKFTSDYARQGAGFSLRYEIFKTGSEDCSKNFTSPNGTIESPGFPEKYPHNLDCTFTILAKPKMEIILQFLIFDLEHDPLQVGEGDCKYDWLDIWDGIPHVGPLIGKYCGTKTPSELRSSTGILSLTFHTDMAVAKDGFSARYYLVHQEPLENFQCNVPLGMESGRIANEQISASSTYSDGRWTPQQSRLHGDDNGWTPNLDSNKEYLQVDLRFLTMLTAIATQGAISRETQNGYYVKSYKLEVSTNGEDWMVYRHGKNHKVFQANNDATEVVLNKLHAPLLTRFVRIRPQTWHSGIALRLELFGCRVTDAPCSNMLGMLSGLIADSQISASSTQEYLWSPSAARLVSSRSGWFPRIPQAQPGEEWLQVDLGTPKTVKGVIIQGARGGDSITAVEARAFVRKFKVSYSLNGKDWEYIQDPRTQQPKLFEGNMHYDTPDIRRFDPIPAQYVRVYPERWSPAGIGMRLEVLGCDWTDSKPTVETLGPTVKSEETTTPYPTEEEATECGENCSFEDDKDLQLPSGFNCNFDFLEEPCGWMYDHAKWLRTTWASSSSPNDRTFPDDRNFLRLQSDSQREGQYARLISPPVHLPRSPVCMEFQYQATGGRGVALQVVREASQESKLLWVIREDQGGEWKHGRIILPSYDMEYQIVFEGVIGKGRSGEIAIDDIRISTDVPLENCMEPISAFAGGTLLPGTEPTVDTVPMQPIPAYWYYVMAAGGAVLVLVSVALALVLHYHRFRYAAKKTDHSITYKTSHYTNGAPLAVEPTLTIKLEQDRGSHC
notes: cDNA Origene RC210928, isoform 5; not shown: vector-encoded spacer and split NanoLuc fragment

Columns and labels:
[1] = target: B2; test: NanoBiT split-luciferase complementation of tagged NRP2 and CCR7 in Expi293F cells; normalized to wells without ligand
Description: (§1) The vectors were then transfected into Expi293F cells by Expifectamine transfection reagent (Fisher Scientific) at 1 ug per mL at a density of 1 million cells per mL. Approximately 16-20 hours post transfection, cells were washed, plated at 100,000 cells/well in luminometer plates, and then cell permeable luciferase substrate was added and luminescence was monitored on a GloMax96 (Promega) until stabilization of luminescent signal was achieved.

[2] = target: T1, Human NRP2a v1 (931aa) with C-terminal split NanoLuc tag, expressed in Expi293F cells (human, UniProt O60462 23-931); test: NanoBiT split-luciferase complementation of tagged NRP2 and CCR7 in Expi293F cells; 100 nM CCL21 or CCL19 added; normalized to wells without ligand
T1 construct: Made by mutagenesis from the isoform 2 / isoform 5 vectors; not shown: vector-encoded spacer and split NanoLuc fragment (Promega pBiT vector)

[3] = target: T2, Human NRP2a v2 (926aa) in pBiT2.1-C with C-terminal split NanoLuc tag, expressed in Expi293 cells (human, UniProt O60462 23-931); test: as above
T2 construct: cDNA Origene RCC220706, isoform 2; also called pBiT2.1-C-NRP2v2 (isoform 2); NRP2 v2; not shown: vector-encoded spacer and small split NanoLuc fragment (pBiT2.1-C)

[4] = target: T2, Human NRP2a v2 (926aa) in pBiT2.1-C …; test: NanoBiT complementation of NRP2a v2 and CCR7 truncated after aa331 in Expi293 cells; 100 nM CCL21; normalized to wells without ligand
Description: The vectors were transfected into Expi293 cells using Expifectamine (Fisher Scientific). Approximately 16-20 hours post transfection, cells were washed, plated at 100,000 cells/well in luminometer plates, and then cell permeable luciferase substrate was added and luminescence was monitored on a GloMax96 (Promega). 100 nM ligand was added, and response to ligand was calculated with respect to a control set with no ligand.

[5] = target: B2; test: NanoBiT split-luciferase complementation of tagged NRP2 and CCR7 in Expi293F cells; normalized to wells without ligand; remark: listed apart in the source
Description: as §1

Binder: B1
binding result [1]: no binding (tested: 100 nM CCL21 or CCL19 (from the text))

Binder: B2
binding result [2]: binds
binding result [3]: binds

Binder: B3
binding result [4]: binds

Binder: B4
binding result [5]: no binding (tested: 100 nM CCL21 or CCL19 (from the text))
